In US20250296984A1, “THERAPEUTIC AND DIAGNOSTIC AGENTS AND USES THEREOF” (priority 2022, published 2025):
Marks after values point to notes of the source that are not given here.

What was measured:
[1] = system: human cancer tissues and adjacent normal tissues; assay: Immunohistochemistry (IHC) on human cancer tissue micro-arrays
Experimental: Cytomegalovirus (CMV) control slides containing CMV positive lung tissue and CMV negative myometrium (product number #3240A) were obtained from Newcomer Supply Inc., Middleton, WI 53562-2579, USA. Tissue micro-arrays (TMAs) were obtained from US Biomax Inc., Derwood, MD 20855, USA, and included tumor tissues #BR1008b, #BS17016c, #BCN721b and normal tissues #FDA662a and heart tissues #HEN241a.
The paraffin sections were sequentially immersed into a. 100% xylene three times (5 min each); b. 100% ethanol twice (2 min each); c. 95% ethanol twice (2 min each). The slides were rinsed twice in water for 5 min to remove ethanol. […], the slides were immersed in 3% H2O2 for 5 minutes and washed thereafter twice (2×) with distilled water. The slides were then immersed in the working citrate buffer (pH 6.0) and covered with a lid. The buffer was heated in the microwave until it had boiled, and then kept in the steamer for 15 min.
The sections were cooled at room temperature for 30 min and washed with PBS. 5% BSA blocking solution was then added to the HIER treated samples and they were incubated at 37° C. for 30 min. The primary antibody was diluted according to the best results from the dilution gradient tests and added to the samples for incubation overnight at 4° C. or 37° C. for 1 h. The slides were then washed three times in PBS on the shaker. The secondary antibodies were used in 1:200 dilution, added to the samples and incubated at 37° C. for 30 min. The slides were washed three times (5 min each) in PBS on the shaker. Strept-Avidin Biotin Complex (SABC) HRP- or AP-conjugated reagents were added, and the samples were incubated in dark at room temperature. The samples were thereafter washed in distilled water, counter stained by hematoxylin, and then dehydrated through gradient ethanol from 70% to 100%, and cleared by 3 times in xylene, 5 min each. Slides were mounted by ACRYMOUNT (StatLab, MicKinney, TX 75069, USA) and cover-slipped. Digitized pictures were taken by Olympus VS120 scanner and analyzed by using OlyVia 3.2 software (Olympus Corporation, 20101 Tokyo, Japan) by senior Pathologist.
We thereafter studied the binding of US28-13-5G6-1D3 rAb to human cancer tissues by using IHC and confirmatory ISH analyses. The results were evaluated by a Senior Pathologist. We found specific staining of the US28-13-5G6-1D3 rAb on several cancer types. Among these were glioblastomas (e.g. glioblastoma grade 4), colonic cancer, rectum cancer, breast cancer (e.g. locally advanced breast cancer and its metastasis), oesophagus cancer, gastric/stomach cancer, pancreas cancer, liver cancer such as hepatocellular carcinoma, lung cancer, malignant pheochromocytoma and cervical cancer, showing for the first time a potential universal role of US28 in pathology of cancer. The staining intensity of different cancer cells were classified as negative=0, weakly positive=1+, moderately positive=2+ or strongly positive=3+. […] In the majority of tumors with a positive US28-13-5G6-1D3 rAb staining, the staining was generally positive in large parts of the tumor cells. The tumor positivity was confirmed by positive finding of HCMV DNA in nucleus of the tumor cells by using ISH. […] The IgG control Ab staining was used as negative control and was negative in all of the studied cancerous and normal tissues.

[2] = biological target: T1, HCMV US28 (strain DB) on CHO-US28-A1 cells (Human cytomegalovirus, UniProt P69332, D170N/D19A); assay: FACS surface binding to CHO-US28-A1 cells
T1 construct: expressed in transfected cells; host or cells: CHO-K1 (vector pCDH-EF1a-MCS)
Experimental: Plasmid construction was performed to create a US28-overexpressing cell line. The US28 sequence, identical to HCMV DB strain (Acc. Number: KT959235; SEQ ID No. 5 of this application), fused to a 6His tag at its C terminal part, was inserted into the pCDH-EF1a-MCS vector (Creative Biolabs, Shirley, NY 11967, USA). The plasmid construct was transfected to CHO-K1 cell line. The cells were collected 48 hours after transfection. The cell line was named as CHO-US28-A1-6His and its protein sequence (SEQ ID NO: 47) is the following:
Flowcytometry was used to analyze cell surface binding by the US28 antibodies. Upon cell harvest, adherent non-infected and US28 overexpressing or HCMV infected cells were washed three times with cell staining buffer (phosphate-buffered saline (PBS (Amresco, Cleveland, 44139, USA) added 0.5% BSA and 0.05% Sodium Azide (NaN3)). The cells were trypisinized and then resuspended in DMEM with 10% FBS to inhibit the action of trypsin. The cells were then pelleted at 400×g for 10 minutes and washed three times in cell staining buffer. Cell viability and cell concentration were measured by tryphan blue viability assay and a cell counter (Countess, Invitrogen, Carlsbad, CA 92008, USA). The cell suspension was adjusted to 1×10^6 cells/mL with ice-cold cell staining buffer. The cells were blocked in 1 ml 10% FBS or 1% BSA in PBS per 1×10^6 cells, vortexed briefly, and incubated for 10-30 minutes to eliminate non-specific staining. The cells were then stained with the respective antibodies and appropriate negative controls.
The primary antibodies used were I) 13-5G6-1D3 (50 μg/ml) as a positive control; II) Monovalent and Bivalent VUN100 ScFvs 1:1 (50 μg/ml); III) test antibodies for the specified subclones (1:5).
The primary antibodies used were I) 13-5G6-1D3 1:50 to 50 μg/ml; and II) Commercial US28 polyclonal antibody (50 μg/ml), III) Monovalent and Bivalent VUN100 ScFvs (50 μg/ml) and for certain experiments, the appropriate isotype controls were included.
In both cases (ECD1 and ECD3), the antibodies were added to the cells, vortexed and incubated on ice for 15 to 30 minutes up to overnight and washed twice with cell staining buffer to remove any unbound antibodies. In addition, the CMV Immediate Early Antigen (IE) Alexa488 Ab, MAB810X, 1:50 was included to verify HCMV infected cells in one of the experiments. Because it binds to an intracellular, HCMV encoded protein, it was added after permeabilizing the cells in 70% ethanol for 30 min on ice.
1:500-1:5000 in cell staining buffer of the appropriate fluorescent-conjugated appropriate secondary antibodies were added and incubated on ice for 15-20 min in the dark. The cells were washed three times to remove any unbound antibodies. The cells were then fixed with 0.5% paraformaldehyde (PFA) for 30 min on ice and resuspended in 200-500 μL cell staining buffer for final flow cytometric analysis using an Accuri C6 flow cytometry system (BD Biosciences, San Jose, CA 95131, USA). Data analyses were performed using FlowJo software v8.8 (Treestar Inc. Ashland, OR 97520, USA).
Background levels were determined using the respective secondary antibodies (anti-mFc-FITC for the subclones, or anti-myc-PE for the VUN100 molecules) with CHO cells and CHO-US28 cells. Given that US28 is expressed on the cell surface, the cells were non-permeabilised for these experiments.

B1: US28-13-5G6-1D3: monoclonal antibody against ECD3 of HCMV US28; VH SEQ ID NO: 12, VL SEQ ID NO: 18; rAb is the recombinant product (antibody, V domains shown)
VH: EVKLVESGGGLVQPGGSLRLACATSGFTFTDYYMSWVRQPPGKALEWLGFIRSKANGYTTEYSASVKGRFTISRDNSQSILYLQMNTLRSEDSATYYCARDERRTAWLAYWGQGTLVTVSA
VL: DVLMTQTPLSLPVSLGDQASISCRSSQSIVHSNGNTYLDWYLQKPGQSPKLLIYKVSNRFSGVPDRFSGSGSGTDFTLKISRVEAEDLGVYYCFQGSHVPTWTFGGGTKLEIK
modifications: Mature form of VH sequence of 1D3, without the leader sequence; Mature form of VL sequence of 1D3, without the leader sequence
notes: monoclonal antibody against ECD3 of HCMV US28; rAb is the recombinant product
staining of metastases ([1]; All TNBC (n=8) and HER2 positive (n=11) metastases): positive | samples positive for staining ([1]; Hepatocellular carcinomas): 2/3 | samples positive for staining ([1]; cervix cancer samples): 2/3 | controls negative for staining ([1]; epithelial cells adjacent to colon adenocarcinoma): 3/3 | samples positive for staining ([1]; lung cancer samples): 2/3 | samples positive for staining ([1]; pancreas cancer samples): 1/3 | number of samples with positive staining ([1]; rectum adenocarcinoma, 3 studied): 3 | binding to CHO-US28-A1 cells relative to any of the other 9 clones ([2]; 1:50 w/v Ab dilution): 8-10 fold | CHO-US28-A1 cells bound/stained ([2]; comparison with commercial US28 Ab, FIG. 11A): more than 50%

B2: 13-5G6-1D3 rAb: recombinant antibody product of US28-13-5G6-1D3 produced in HEK293-F cells (antibody)
heavy: EVKLVESGGGLVQPGGSLRLACATSGFTFTDYYMSWVRQPPGKALEWLGFIRSKANGYTTEYSASVKGRFTISRDNSQSILYLQMNTLRSEDSATYYCARDERRTAWLAYWGQGTLVTVSAAKTTPPSVYPLAPGSAAQTNSMVTLGCLVKGYFPEPVTVTWNSGSLSSGVHTFPAVLQSDLYTLSSSVTVPSSTWPSETVTCNVAHPASSTKVDKKIVPRDCGCKPCICTVPEVSSVFIFPPKPKDVLTITLTPKVTCVVVDISKDDPEVQFSWFVDDVEVHTAQTQPREEQFNSTFRSVSELPIMHQDWLNGKEFKCRVNSAAFPAPIEKTISKTKGRPKAPQVYTIPPPKEQMAKDKVSLTCMITDFFPEDITVEWQWNGQPAENYKNTQPIMDTDGSYFIYSKLNVQKSNWEAGNTFTCSVLHEGLHNHHTEKSLSHSPGK
light: DVLMTQTPLSLPVSLGDQASISCRSSQSIVHSNGNTYLDWYLQKPGQSPKLLIYKVSNRFSGVPDRFSGSGSGTDFTLKISRVEAEDLGVYYCFQGSHVPTWTFGGGTKLEIKRADAAPTVSIFPPSSEQLTSGGASVVCFLNNFYPKDINVKWKIDGSERQNGVLNSWTDQDSKDSTYSMSSTLTLTKDEYERHNSYTCEATHKTSTSPIVKSFNRNEC
Binding Specificity (ratio of surface binding) ([2]; CHO-US28-A1 cells compared with US28 negative control CHO cells): 21.5* | higher surface binding to US28 expressing CHO cells than control CHO cells ([2]; FIG. 7): > 21 times

B3: 13-5G6-1D3: mouse monoclonal IgG1 kappa antibody against US28 ECD3; VH SEQ ID NO: 12, VL SEQ ID NO: 18 (antibody, V domains shown)
VH: B1 VH
VL: B1 VL
modifications: Mature form of VH sequence of 1D3, without the leader sequence; Mature form of VL sequence of 1D3, without the leader sequence
IHC staining ([1]; human malignant pheochromocytoma tumor (HCMV positive control), FIG. 19 B): positive staining | adjacent control breast tissues with no cytoplasmic staining ([1]; normal breast epithelial cells): 10/10
